Square brackets hold non-standard residues; d marks the D form. Ends that are not written are not given here.

Results on one molecule are retold here after patent US7211565 (ESPERION THERAPEUTICS, dated 2007).

The target of the assay is T1, lecithin:cholesterol acyltransferase (LCAT), purified from human plasma (human, UniProt P04180 25-440).
T1 sequence (looked up): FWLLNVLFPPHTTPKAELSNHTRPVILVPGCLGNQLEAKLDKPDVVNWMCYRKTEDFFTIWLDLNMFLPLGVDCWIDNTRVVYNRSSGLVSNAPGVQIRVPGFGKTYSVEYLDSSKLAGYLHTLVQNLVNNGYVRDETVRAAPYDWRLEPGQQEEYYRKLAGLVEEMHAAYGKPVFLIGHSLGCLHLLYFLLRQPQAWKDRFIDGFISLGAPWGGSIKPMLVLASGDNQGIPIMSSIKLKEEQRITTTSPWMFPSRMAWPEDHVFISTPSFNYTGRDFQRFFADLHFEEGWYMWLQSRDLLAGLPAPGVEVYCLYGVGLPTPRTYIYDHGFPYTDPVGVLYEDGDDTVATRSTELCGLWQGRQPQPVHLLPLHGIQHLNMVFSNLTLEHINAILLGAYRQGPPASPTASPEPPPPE
The experiment in a line: cell-based or functional assay.

B1: peptide 55 (SEQ ID NO:55) (peptide)
peptide: [dP]LFRELLNELLEALKQKLK
In the case of B1, the “ACTIVITY (%) LCAT” value is 19%.
